Measurements: patent US20100286027A1, “ANTI-BACTERIAL COMPOSITIONS” (priority 2008, published 2010)
Converted amounts (≈) assume the structure as drawn.

Assays:
E. coli NB27004 = assay: MIC against aerobic gram negative bacteria; assay type: cell-based, Escherichia coli
[1] = system: E. coli NB27005* (TolC efflux pump mutant); assay: MIC against aerobic gram negative bacteria, efflux pump mutant; assay type: cell-based, Escherichia coli
P. aeruginosa NB52019 = assay: MIC against aerobic gram negative bacteria; assay type: cell-based, Pseudomonas aeruginosa
[2] = system: P. aeruginosa NB52020* (mexAB/oprM efflux pump mutant); assay: MIC against aerobic gram negative bacteria, efflux pump mutant; assay type: cell-based, Pseudomonas aeruginosa
[3] = system: H. influenzae NB65027-CDS0021* (TolC efflux pump mutant); assay: as above; assay type: cell-based, Haemophilus influenzae
H. influenzae NB65027 [4] = assay: microbe, parasite or virus in culture; settings: Haemophilus influenzae, NB65027, read-out: minimal inhibitory concentration (MIC)
E. coli = assay: Bacterial growth inhibition (FIG. 15); assay type: cell-based, Escherichia coli; settings: FIG. 15 Panel B
L. monocytogenes = assay: Bacterial growth inhibition (FIG. 15); assay type: cell-based, Listeria monocytogenes; settings: FIG. 15 Panel C
H. influenzae NB65027 [5] = settings: aerobic gram negative
[6] = system: lawn of the indicated bacteria; assay: Agar diffusion assay; settings: FIG. 11 Panel D; 0.5 mg/ml in sterile PBS per well
[7] = system: Listeria monocytogenes (7644); assay: BacTiter-Glo bacterial ATP content viability assay; settings: Listeria monocytogenes (7644), gram +; +/− SD, n = 3; >100 = activity detected but <50% inhibition
Bacillus Subtilis (6633) = assay: BacTiter-Glo bacterial ATP content viability assay; settings: Bacillus Subtilis (6633), gram +; +/− SD, n = 3; >100 = activity detected but <50% inhibition
[8] = system: Enterococcus faecalis (29212); assay: BacTiter-Glo bacterial ATP content viability assay; settings: Enterococcus faecalis (29212), gram +; +/− SD, n = 3; >100 = activity detected but <50% inhibition
[9] = system: Staphylococcus aureus (29213); assay: BacTiter-Glo bacterial ATP content viability assay; settings: Staphylococcus aureus (29213), gram +; +/− SD, n = 3; >100 = activity detected but <50% inhibition
[10] = system: Streptococcus pneumoniae (49619); assay: BacTiter-Glo bacterial ATP content viability assay; settings: gram +, +/− SD, n = 3, >100 = activity detected but <50% inhibition
Escherichia coli (8739) = assay: BacTiter-Glo bacterial ATP content viability assay; settings: gram −, +/− SD, n = 3, >100 = activity detected but <50% inhibition
Escherichia coli (25922) = assay: BacTiter-Glo bacterial ATP content viability assay; settings: gram −, +/− SD, n = 3, >100 = activity detected but <50% inhibition
[11] = system: Klebsiella pneumoniae (700603); assay: BacTiter-Glo bacterial ATP content viability assay; settings: gram −, +/− SD, n = 3, >100 = activity detected but <50% inhibition
[12] = system: Pseudomonas aeruginosa (27853); assay: BacTiter-Glo bacterial ATP content viability assay; settings: gram −, +/− SD, n = 3, >100 = activity detected but <50% inhibition
[13] = system: Salmonella choleraesuis (13076); assay: BacTiter-Glo bacterial ATP content viability assay; settings: gram −, +/− SD, n = 3, >100 = activity detected but <50% inhibition
[14] = system: Stenotrophomonas maltophilia (17666); assay: BacTiter-Glo bacterial ATP content viability assay; settings: gram −, +/− SD, n = 3, >100 = activity detected but <50% inhibition
[15] = Escherichia coli, read-out: minimal inhibitory concentration (MIC)
[16] = Pseudomonas aeruginosa, read-out: minimal inhibitory concentration (MIC)

For `CN(C)[C@@H]1C(O)=C(C(N)=O)C(=O)[C@@]2(O)C(O)=C3C(=O)c4c(O)cccc4[C@@](C)(O)[C@H]3C[C@@H]12` [Tetracycline, reference compound], the MIC (E. coli NB27004; [15]) was 4 µg/mL (≈ 9 µM), the MIC [1, 15] was 0.5 µg/mL (≈ 1.13 µM) and the MIC (P. aeruginosa NB52019; [16]) was 32 µg/mL (≈ 72 µM). For the same molecule, the MIC [2, 16] was 1 µg/mL (≈ 2.25 µM), the MIC ([3]; Haemophilus influenzae, read-out: minimal inhibitory concentration (MIC)) was 0.5 µg/mL (≈ 1.13 µM) and the MIC (H. influenzae NB65027 [4]) was 0.5 µg/mL (≈ 1.13 µM).

B1: Nod1: purified recombinant LRR domain of Nod1; human NOD1-LRR is SEQ ID NO: 4 (protein, listed as Homo sapiens)
chain: NKDHFQFTNLFLCGLLSKAKQKLLRHLVPAAALRRKRKALWAHLFSSLRGYLKSLPRVQVESFNQVQAMPTFIWMLRCIYETQSQKVGQLAARGICANYLKLTYCNACSADCSALSFVLHHFPKRLALDLDNNNLNDYGVRELQPCFSRLTVLRLSVNQITDGGVKVLSEELTKYKIVTYLGLYNNQITDVGARYVTKILDECKGLTHLKLGKNKITSEGGKYLALAVKNSKSISEVGMWGNQVGDEGAKAFAEALRNHPSLTTLSLASNGISTEGGKSLARALQQNTSLEILWLTQNELNDEVAESLAEMLKVNQTLKHLWLIQNQITAKGTAQLADALQSNTGITEICLNGNLIKPEEAKVYEDEKRIICF
B1 was tested, and the “minimal inhibitory concentration (MIC)” value (E. coli NB27004) was >128 microgram/ml, the “minimal inhibitory concentration (MIC)” value ([1]; aerobic gram negative, E. coli NB27005*, TolC efflux pump mutant strain) was 32 microgram/ml and the “minimal inhibitory concentration (MIC)” value (P. aeruginosa NB52019) was >128 microgram/ml. For the same molecule, the “minimal inhibitory concentration (MIC)” value ([2]; aerobic gram negative, P. aeruginosa NB52020*, mexAB/oprM efflux pump mutant strain) was >128 microgram/ml, the “minimal inhibitory concentration (MIC)” value ([3]; aerobic gram negative, H. influenzae NB65027-CDS0021*, TolC efflux pump mutant strain) was 4 microgram/ml and the E. coli growth (E. coli) was “inhibited”. For the same molecule, the L. monocytogenes growth (L. monocytogenes) was “inhibited”, the “minimal inhibitory concentration (MIC)” value (H. influenzae NB65027 [5]) was >128 microgram/ml and the “anti-bacterial activity by agar diffusion assay” value [6] was “Anti-bacterial activity”. The “antibacterial activity by bacterial ATP content (IC50), [LRR domain]” value (shortened to “antibacterial activity”) [7] was 32.0 +/− 2.1 microgram/ml, the “antibacterial activity” value (Bacillus Subtilis (6633)) was 15.5 +/− 12.0 microgram/ml and the “antibacterial activity” value [8] was >100 microgram/ml. The “antibacterial activity” value [9] was 111.3 +/− 13.0 microgram/ml, the “antibacterial activity” value [10] was 13.5 +/− 4.9 microgram/ml and the “antibacterial activity” value (Escherichia coli (8739)) was 29.0 +/− 2.8 microgram/ml. For the same molecule, the “antibacterial activity” value (Escherichia coli (25922)) was >100 microgram/ml, the “antibacterial activity” value [11] was 30.8 +/− 4.9 microgram/ml and the “antibacterial activity” value [12] was >100 microgram/ml. For the same molecule, the “antibacterial activity” value [13] was >100 microgram/ml and the “antibacterial activity” value [14] was >100 microgram/ml.
